{"source": "paper PMC11754652", "molecular_target": "T1, RheA (RheASal) (Streptomyces albidoflavus J1074) (UniProt O08247)", "T1 sequence": "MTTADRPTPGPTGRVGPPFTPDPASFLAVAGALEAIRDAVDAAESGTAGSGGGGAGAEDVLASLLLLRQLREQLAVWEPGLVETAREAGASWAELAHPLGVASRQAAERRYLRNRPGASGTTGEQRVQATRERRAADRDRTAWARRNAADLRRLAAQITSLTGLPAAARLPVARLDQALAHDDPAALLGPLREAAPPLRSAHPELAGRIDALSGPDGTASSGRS", "test": "EMSA", "conditions": "20 mM Tris-HCl pH 7.5, 1 mM DTT, 5 mM MgCl2, 0.5 mg/ml BSA, 5% glycerol, 20 uL, 30 C 25 min, 4.5% native PAGE in 45 mM Tris-HCl pH 8.0, 45 mM boric acid", "data": [{"sequence": "GAGTGAACACCTCCAGAAGTCCAGGCAGTTGATGCCATGCGCTTCGCTTGGCACCGTTGTAACATGTCATCCGAACGATGACAAGCGAGTCGTCGTCCATCGGATGACGACCCGGAGTGATATC (double strand) [RS01 probe (one rheO)]", "values": [{"measurement": "binding", "result": "binds"}]}]}
